{"source": "patent US10428327B2", "about": "“Compositions and methods for enhancing homologous recombination” (LIFE TECHNOLOGIES CORPORATION, priority 2016, dated 2019)", "molecules": {"B1": {"name": "PS80: phosphorothioate 80-mer ssDNA, BFP point mutation, SEQ ID 49 (nucleic acid)", "DNA": "{P}-dG*dC*dTdGdCdCdCdGdTdGdCdCdCdTdGdGdCdCdCdAdCdCdCdTdCdGdTdGdAdCdCdAdCdCdCdTdGdAdCdCdTdAdCdGdGdCdGdTdGdCdAdGdTdGdCdTdTdCdAdGdCdCdGdCdTdAdCdCdCdCdGdAdCdCdAdCdAdT*dG*dA"}}, "key": {"eBFP genomic locus": {"tested_on": "eBFP genomic locus", "assay": "Sequencing verification of eBFP locus, 1 nt substitution (96 clones)", "type": "cell-based", "conditions": "sequencing of 96 clones; for Relative percentage HDR / Relative percentage NHEJ / Relative percentage wt: 1 nt substitution", "protocol": "FIG. 8. Effects of oligonucleotide length and modification on HDR. (A) PAM ssDNA (6 nt insertion). […] Various length of PAM ssDNA oligonucleotide was normalized to either equal mass or equal molarity. Samples in the absence of donor (+gRNA) or gRNA (−gRNA) served as controls. The percentages of GFP-positive cells were determined by flow cytometry at 48 hours post transfection. (B) PAM ssDNA (1 nt substitution). […] The percentages of GFP-positive cells were determined by flow cytometry at 48 hours post transfection. (C) Verification by sequencing. The eBFP genomic locus was PCR-amplified, followed by cloning and Sanger sequencing of 96 samples. The relative percentage of wild type (wt), NHEJ, and HDR was plotted. (D) Examples of mutations. Examples of edited clones (not representing the actual percentages of NHEJ and HDR). FIG. 8 discloses SEQ ID NOs: 4-14, respectively, from top to bottom.\n(§1) To create homologous recombination (HR) assays, a series of gRNAs flanking the insertion site within the EmGFP gene were designed and synthesized (Table 4). Each individual gRNA was combined with GENEART™ […]™ Cas9 Nuclease to form the Cas9 protein/gRNA ribonucleoprotein complexes (Cas9 RNPs). The Cas9 RNPs were then used to transfect cells via NEON® electroporation. The genomic cleavage efficiency was then evaluated using the GENEART® Genomic Cleavage Detection kit at 48 hours post transfection. The gRNAs with highest editing efficiencies and also in close proximity to the insertion site were selected for the subsequent HR assays. For donor design of a single-stranded oligonucleotide, typically the mutation site was positioned at the center flanked by 30 to 50 nucleotides on each side. For asymmetric donor design, 30 nucleotides were placed on either the left or right arm and then 50 or 67 nucleotides on the right or left arm respectively, in both PAM and non-PAM strands. For design of a dsDNA oligonucleotide with single-stranded overhangs, the insertion element was overlapped in the center flanked by various lengths of ssDNA oligonucleotide on each side. By annealing two single-stranded oligonucleotides at 95° C. for 3 minutes, dsDNA donor molecules with either a 5′ protrusion or a 3′ protrusion were generated. To measure homologous recombination efficiency, the donor DNA was either co-transfected with Cas9 RNPs or delivered sequentially into cells via electroporation. At 48 hours post transfection, the gain of EmGFP function in reporter cell lines was determined by flow cytometric analysis with an Attune® NxT Acoustic Focusing Cytometer (Thermo Fisher Scientific). Alternatively, the genomic loci were PCR-amplified using the corresponding primers and then subjected to GENEART® Genomic Cleavage Detection assay or restriction digestion. The resulting PCR products were also subjected to TOPO cloning. Typically, 96 colonies were randomly picked for sequencing. The sequencing data were analyzed using VECTOR NTI ADVANCE® 11.5 software (Thermo Fisher Scientific).\nIt has been reported that relatively short single-stranded oligonucleotides containing 25-61 bases homologous to the target sequence were capable of correcting a single point mutation (Igoucheva, O., Alexeev, V., Yoon, K., Targeted gene correction by small single-stranded oligonucleotides in mammalian cells, Gene Ther. 8(5):391-399 (2001)). […]"}, "[1]": {"tested_on": "HEK293 cells stably expressing eBFP", "assay": "HDR assay, conversion of eBFP to GFP by flow cytometry", "type": "cell-based", "conditions": "oligonucleotide length and modification, sequential delivery, 1 nt substitution, 48 hours", "excerpt": "To generate a HEK293FT stable cell line expressing eBFP, an eBFP ORF was synthesized by GENEART® custom DNA synthesis (Thermo Fisher Scientific) and then cloned into pDONAR221 vector. Using GATEWAY® recombination technology (Thermo Fisher Scientific), the eBFP ORF was transferred to pLenti6.2-DEST Gateway Vector and then verified by sequencing. Lentivirus was generated using VIRAPOWER® kit as described in the manual. To generate stable cell line, HEK293FT cells were transduced with 0.1 MOI of Lentivirus expressing eBFP. Three days post transduction cells were selected on 5 μg/mL Blasticidine antibiotics for 2 weeks. Cells expressing eBFP were then collected and diluted to […] in complete medium and plated into 96 well plates for single cell clone. After 2 weeks clones were isolated and verified for eBFP expression by flow cytometer. In a reporter assay using a stable eBFP-expressing HEK293 cell line, the substitution of C to T in eBFP gene converts His67 to Tyr67, generating a GFP variant (Table 5).\nas §1\nFor each homologous recombination assay, 1.5 μg of Cas9 protein and 360 ng of gRNA were added to Resuspension Buffer R to a final volume of 7 μl, but limiting the total volume of Cas9 protein plus gRNA to less than 1 μl. The gRNA could be diluted in Buffer R if the concentration was too high. Upon mixing, the sample was incubated at room temperature for 5 to 10 minutes to form Cas9 RNPs. Meanwhile, […]™ HEK293 cells expressing either eBFP or disrupted EmGFP were detached from culture flask with TRYPLE™ Express Enzyme and then counted. Aliquots of 1×10^6 cells were washed once with DPBS without Ca^2+ and Mg^2+ and the cell pellets were resuspended in 50 μl of Resuspension Buffer R. A 5 μl aliquot of cell suspension was mixed with 7 μl of Cas9 RNPs. […] The electroporated cells were transferred to 300 μl of […]. […]"}, "[2]": {"conditions": "listed as 80-base modified oligonucleotide"}}, "note": "Oligonucleotides are written 5' to 3', each unit as a sugar letter and its base; * is a phosphorothioate linkage, no mark a phosphodiester; rarer units and linkages stand in square brackets, end groups in braces. Plain capitals give the bases only. d = 2'-deoxy (DNA); {P} = phosphate"}
{"molecule": "B1", "values": [{"measurement": "overall genome modification efficiency", "setting": "eBFP genomic locus", "value": "~94", "unit": "%"}, {"measurement": "Relative percentage HDR", "setting": "eBFP genomic locus", "value": 40.4, "unit": "%"}, {"measurement": "Relative percentage NHEJ", "setting": "eBFP genomic locus", "value": 53.8, "unit": "%"}, {"measurement": "Relative percentage wt", "setting": "eBFP genomic locus", "value": 5.8, "unit": "%"}, {"measurement": "Relative percentage HDR", "setting": "eBFP genomic locus; [2]", "value": "Approximately 40%"}, {"measurement": "Relative percentage NHEJ", "setting": "eBFP genomic locus; [2]", "value": "approximately 54%"}, {"measurement": "Relative percentage wt", "setting": "eBFP genomic locus; [2]", "value": "approximately 6%"}, {"measurement": "Avg (% GFP+ cells)", "setting": "[1]", "value": 44.3, "unit": "%"}, {"measurement": "Avg (% GFP+ cells)", "setting": "[1]; [2]", "value": "approximately 45%"}]}
